{"source": "patent US7230094B2", "about": "“Neutral sphingomyelinase antisense ribozyme and uses thereof” (priority 2001, dated 2007)", "assay_type_in_all_cases": "cell-based, human", "key": {"MG-63 cells": {"test_system": "MG-63 cells", "test": "Apoptosis by DAPI staining and counting of apoptotic cells", "conditions": "for Apoptosis in response to TNF-α and Fas-L: cells with ribozyme-induced deficiency of N-SMase, TNF-α 20 ng/ml, Fas-L 1 ng/ml, 24 hr", "protocol": "FIG. 6 depicts a quantitative analysis of the effects of TNF-α, C2-Ceramide and Fas-ligand on apoptosis in mutant (CC) and WT (MG-63) cells, as well as wild type/mock transfected cells. Cells were grown on glass cover slips and incubated for 24 hours with TNF-α (20 ng/ml), cell-permeable ceramide (C2-Ceramide) (10 ng/ml) or Fas-L (1 ng/ml). Cells were fixed and stained with DAPI and photographed at 50× magnification. Apoptotic cells were counted using a hemocytometer. The basal levels of apoptotic cells were: MG-63 (3%); L-3 (3%); and CC (2.8%). Errors bars indicate ±S.D. (N=2).\nWT (MG-63), LacZ (L-3) and mutant (CC) cells were grown on glass cover slips and incubated for 24 hr with TNF-α (20 ng/ml), cell-permeable ceramide (C2-ceramide) (10 ng/ml) or Fas-L (1 ng/ml). Cells were fixed and stained with DAPI stain and photographed (50×). Apoptotic cells were counted using a hemocytometer and compared to total cell counts per field. Basal levels of apoptosis were 3% untransfected, 3% control transfection, and 2.8% ribozyme transfection."}, "N-SMase mRNA": {"test_system": "N-SMase mRNA", "test": "N-SMase mRNA by Northern analysis and RT-PCR in transfected MG63 clones", "protocol": "RNA was originally extracted from a single confluent (90%) T-75 flask using Trizol. […] Next, poly-A^+ RNA was extracted from 3 confluent T-75 flasks, loading 3.5 μg/lane. Northern gels were standard, using 1.2% agarose, 1×MOPS, and 6.5% formaldehyde. RNA was transferred to nylon membranes with a standard wick system. The cDNA probe was derived from the cDNA construct, pHH11. An EcoR-1/SpeI fragment, containing a three hundred base pair probe was prepared. This was radiolabeled with [^32P]-dCTP and the random primer labeling system.\nClone CC had no detectable N-SMase mRNA by Northern analysis, so RT-PCR was performed to quantitate the reduction. Compared to a control-transfected clone (WT), there was a 50% reduction in mRNA in clone CC (ribozyme). This was confirmed by western blot analysis of the transfected and control clones for N-SMase."}, "N-SMase": {"test_system": "N-SMase", "test": "TNF-α and Fas ligand induced N-SMase activity in WT and mutant cells", "conditions": "for Basal activity of N-SMase: unstimulated CC cells, 2.7±0.1 in MG63 control cells, ±S.D., N=3", "protocol": "FIGS. 4A–4B depict the effects of incubation with TNF-α (FIG. 4A) and Fas ligand (FIG. 4B) over time on the activity of N-SMase in mutant and WT cells. Confluent cultures of WT (MG-63) and mutant (CC) cells were incubated with serum free medium with or without TNF-α ([…]) or Fas ligand (1 ng/ml). At the indicated intervals, cells were harvested, centrifuged, and lysed in buffer containing 0.1% Triton™ X-100, 25 mM Tris (pH 7.4), 5 mM EDTA, 1 mM phenylmethylsulfonyl fluoride (PMSF), and 2 μg each of chymostatin, leupeptin, antipain, and pepstatin A. 100 μl of a reaction mixture containing 50 mM Tris (pH 7.4), 5 mM MgCl2, 0.05% Triton™ X-100, 5 mM dithiothreitol (DTT) and 10 nmol [^14C] sphingomyelin (100,000 cpm) was added to 5–10 μl of cell lysate (100 μg protein). The basal activity of N-SMase was 2.7±0.1 nmol/mg protein/hr in MG63 cells and 0.67±0.1 nmol/mg protein/hr in CC cells. These levels were defined as 100% activity. Error bars indicate ±S.D. (N=3).\nTumor necrosis factor alpha (TNF-α) is known to induce programmed cell death through stimulation of sphingomyelinase activity and generation of ceramide. This example describes the ability of the ribozyme directed against N-SMase to inhibit this pathway. The effects of incubation with TNF-α and Fas ligand over time on the activity of N-SMase in mutant and WT cells are shown in FIGS. 4A and 4B, respectively. Confluent cultures of WT (MG-63) and mutant (CC) cells were incubated with serum free medium with or without TNF-α ([…]) or Fas ligand (1 ng/ml), and the activity of N-SMase was determined by measuring the cleavage of [^14C]sphingomyelin. At 0, 10, 20, 30, 40, 50, and 60 minutes, cells were harvested, centrifuged, and lysed in buffer containing 0.1% Triton™ X-100, 25 mM Tris (pH 7.4), 5 mM EDTA, 1 mM phenylmethylsulfonyl fluoride (PMSF), and 2 μg each of chymostatin, leupeptin, antipain, and pepstatin A. 100 μl of a reaction mixture containing 50 mM Tris (pH 7.4), 5 mM MgCl2, 0.05% Triton™ X-100, 5 mM dithiothreitol (DTT) and 10 nmol [^14C]sphingomyelin (100,000 cpm) was added to 5–10 μl of cell lysate (100 μg protein). The basal activity of N-SMase was 2.7±0.1 nmol/mg protein/hr in MG63 cells and 0.67±0.1 nmol/mg protein/hr in CC cells. These levels were defined as 100% activity."}, "[1]": {"test_system": "caspase-3 and cytochrome-C release", "test": "Caspase-3 and cytochrome-C release by western analysis and densitometry", "conditions": "N-SMase-deficient cells compared to control (sham-transfected) cells", "protocol": "In order to determine a dose-response relationship between the concentration of TNF-α or FasL and apoptosis, western analysis was used to quantitate release of both caspase-3 (FIG. 9) and cytochrome-C (FIG. 10).\nImmunoblots for the measurement of cytochrome-C and caspase-3 were carried out after incubation of cells with TNF-α (10 ng/ml) or FasL (1 ng/ml) for 48 hours. Cells were extracted with a buffer (20 mM Hepes pH 7.5, 10 mM KCl, 1.5 mM MgCl2, 5 mM EDTA, 5 mM DTT, 2 mM phenylmethylsulfonylfluoride, 1% NonidetP40, 0.5% sodium deoxycholate, 0.1% SDS, 2 μg/ml leupeptin, 2 μg/ml aprotinin, 0.5 μg/ml benzamindine, and 250 mM sucrose) on ice for 30 minutes. After centrifugation for 10 minutes at 10,000×g, the supernatant was used for western analysis with an antibody for cytochrome-C (Pharmingen, San Diego, Calif.). For assessment of caspase-3, samples were similarly processed in addition to passage through a 21-g needle prior to centrifugation. The western analysis was performed with a rabbit polyclonal IgG antibody to caspase-3 (Santa Cruz, Calif.) raises against an epitope corresponding to amino acids 1–277, representing the full-length precursor form of CPP-32 (caspase-3). For both caspase-3 and cytochrome-C, bands were quantified with densitometric analysis."}}, "data": [{"molecule": "N-SMase ribozyme: U1 snRNA-derived hammerhead antisense ribozyme targeting N-SMase mRNA, expressed from vector pNSMRz; stably transfected MG63 clones CC and C-B (nucleic acid, listed as Homo sapiens) AUACUUACCUGGCAGGGGAGAUACCAUGAUCACGAAGGUGGUUUUCCCAGGGCGAGGCUUAUCCAUUGGCCUCCGGAUGUGCUGACCCCUGCGAUUUCCCCAAAUGUGGGAAACUCGACUGCAGAAUAUGUCAUCAUAUUGCCUGAUGAGUCCGUGAGGACGAAACCUCUUCACAUGAAAAAGUGGGGCUGCGUUCGCGCUUCCCCG", "values": [{"measurement": "Basal level of apoptotic cells", "setting": "MG-63 cells; CC (ribozyme transfection), DAPI, 3% untransfected, 3% control transfection", "result": 2.8, "unit": "%"}, {"measurement": "Apoptosis in response to TNF-α and Fas-L", "setting": "MG-63 cells", "result": "marked hyporesponsiveness"}, {"measurement": "Apoptosis in response to TNF-α and Fas-L", "setting": "MG-63 cells; listed as antisense ribozyme", "result": "not altered"}, {"measurement": "Apoptosis in response to TNF-α and Fas-L", "setting": "MG-63 cells; listed as ribozyme", "result": "marked resistance to apoptosis"}, {"measurement": "N-SMase mRNA by Northern analysis", "setting": "N-SMase mRNA; clone CC", "result": "no detectable"}, {"measurement": "Reduction in N-SMase mRNA by RT-PCR", "setting": "N-SMase mRNA; clone CC compared to a control-transfected clone (WT)", "result": 50, "unit": "%"}, {"measurement": "N-SMase activity under cytokine stimulation", "setting": "N-SMase; ribozyme cells stimulated with TNF-α and Fas-L, sham-transfected cells 4.0", "result": 0.75, "unit": "nmol/mg protein/hr"}, {"measurement": "Change of N-SMase activity after addition of TNF-α", "setting": "N-SMase; ribozyme transfected cells, 0-60 min, FIG. 4A", "result": "no significant difference"}, {"measurement": "Basal activity of N-SMase", "setting": "N-SMase", "result": "0.67±0.1", "unit": "nmol/mg protein/hr"}, {"measurement": "Basal activity of N-SMase", "setting": "N-SMase; listed as antisense ribozyme", "result": 0.67, "unit": "nmol/mg protein/hr"}, {"measurement": "Dose-response of caspase-3 and cytochrome-C release to TNF-α and FasL", "setting": "[1]", "result": "marked blunting of the response"}]}]}
